Series [1] concerns HeLa Kyoto. As to the kind of experiment: thermal stability score vs G1/S (z-score of summed log2 fold changes over temperatures); higher = more thermally stable than in G1/S.
Series [2] deals with HeLa Kyoto. As to the kind of experiment: melting temperature (median over replicates), in situ; higher = more thermally stable.
Series [3] concerns HeLa Kyoto. As to the kind of experiment: solubility in G1/S (NP-40 vs SDS abundance) (log2 ratio); higher = more soluble. The settings on record: cell cycle stage: G1/S.
In series [4] the test system is HeLa Kyoto. Put plainly: solubility change mitosis vs G1/S (difference of NP-40 vs SDS log2 ratios) (log2 ratio difference); higher = more soluble in mitosis.
[5] abbreviates: cell cycle stage: early G1 (4.5 h after nocodazole release).
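Wherever melting temperature (median over replicates), in situ is given: HeLa Kyoto cells synchronized by double thymidine or nocodazole block, proteins quantified by TMT10plex mass spectrometry, three independent biological replicates.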
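Wherever solubility change mitosis vs G1/S (difference of NP-40 vs SDS log2 ratios) is given: synchronized HeLa Kyoto cells (double thymidine block for G1/S, nocodazole release for mitosis), protein amounts in NP-40 versus SDS lysates quantified by mass spectrometry, three biological replicates.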
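Wherever solubility in G1/S (NP-40 vs SDS abundance) is given: HeLa Kyoto cells arrested at G1/S by double thymidine block, proteins quantified by TMT10plex mass spectrometry in mild NP-40 versus SDS extracts, three biological replicates.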
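Wherever thermal stability score vs G1/S (z-score of summed log2 fold changes over temperatures) is given: synchronized HeLa Kyoto cells, proteins quantified by TMT10plex mass spectrometry, three biological replicates, mitosis taken 0.5 h after nocodazole release, G1/S directly after double thymidine block.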

Consider “MATPGNLGSSVLASKTKTKKKHFVAQKVKLFRASDPLLSVLMWGVNHSINELSHVQIPVMLMPDDFKAYSKIKVDNHLFNKENMPSHFKFKEYCPMVFRNLRERFGIDDQDFQNSLTRSAPLPNDSQARSGARFHTSYDKRYIIKTITSEDVAEMHNILKKYHQYIVECHGITLLPQFLGMYRLNVDGVEIYVIVTRNVFSHRLSVYRKYDLKGSTVAREASDKEKAKELPTLKDNDFINEGQKIYIDDNNKKVFLEKLKKDVEFLAQLKLMDYSLLVGIHDVERAEQEEVECEENDGEEEGESDGTHPVGTPPDSPGNTLNSSPPLAPGEFDPNIDVYGIKCHENSPRKEVYFMAIIDILTHYDAKKKAAHAAKTVKHGAGAEISTVNPEQYSKRFLDFIGHILT [PIP4K2A]”, for which the results for the thermal stability score in series [1] (setting [5]) and in series [1] (cell cycle stage: mitosis) were 2.24 and 1.11, respectively. Further, the melting temperature in series [2] (cell cycle stage: G1/S) is 49.8 °C; in series [2] (cell cycle stage: mitosis), 49.4 °C. The “solubility in G1/S (log2)” value in series [3] came out at 0.309. Moreover, the “solubility change mitosis (log2)” value in series [4] was -0.142.
On to “MSRSPDAKEDPVECPLCMEPLEIDDINFFPCTCGYQICRFCWHRIRTDENGLCPACRKPYPEDPAVYKPLSQEELQRIKNEKKQKQNERKQKISENRKHLASVRVVQKNLVFVVGLSQRLADPEVLKRPEYFGKFGKIHKVVINNSTSYAGSQGPSASAYVTYIRSEDALRAIQCVNNVVVDGRTLKASLGTTKYCSYFLKNMQCPKPDCMYLHELGDEAASFTKEEMQAGKHQEYEQKLLQELYKLNPNFLQLSTGSVDKNKNKVTPLQRYDTPIDKPSDSLSIGNGDNSQQISNSDTPSPPPGLSKSNPVIPISSSNHSARSPFEGAVTESQSLFSDNFRHPNPIPSGLPPFPSSPQTSSDWPTAPEPQSLFTSETIPVSSSTDWQAAFGFGSSKQPEDDLGFDPFDVTRKALADLIEKELSVQDQPSLSPTSLQNSSSHTTTAKGPGSGFLHPAAATNANSLNSTFSVLPQRFPQFQQHRAVYNSFSFPGQAARYPWMAFPRNSIMHLNHTANPTSNSNFLDLNLPPQHNTGLGGIPVAGEEEVKVSTMPLSTSSHSLQQGQQPTSLHTTVA [CNOT4]”, for which the figures for the thermal stability score in series [1] (setting [5]) and in series [1] (cell cycle stage: mitosis) were 1.12 and 0.182, respectively. Also, the melting temperature in series [2] (cell cycle stage: G1/S) was determined as 52.7 °C; in series [2] (cell cycle stage: mitosis), 53 °C. Further, the “solubility in G1/S (log2)” value in series [3] turned out to be 0.401. Besides, in series [4], the “solubility change mitosis (log2)” value is 0.0198.
In the case of “MAAAAAGTATSQRFFQSFSDALIDEDPQAALEELTKALEQKPDDAQYYCQRAYCHILLGNYCVAVADAKKSLELNPNNSTAMLRKGICEYHEKNYAAALETFTEGQKLDIETGFHRVGQAGLQLLTSSDPPALDSQSAGITGADANFSVWIKRCQEAQNGSESEVWTHQSKIKYDWYQTESQVVITLMIKNVQKNDVNVEFSEKELSALVKLPSGEDYNLKLELLHPIIPEQSTFKVLSTKIEIKLKKPEAVRWEKLEGQGDVPTPKQFVADVKNLYPSSSPYTRNWDKLVGEIKEEEKNEKLEGDAALNRLFQQIYSDGSDEVKRAMNKSFMESGGTVLSTNWSDVGKRKVEINPPDDMEWKKY [SUGT1]”, the thermal stability score is 0.39 in series [1] (setting [5]) and -0.171 in series [1] (cell cycle stage: mitosis). In addition, the melting temperature in series [2] (cell cycle stage: G1/S) turned out to be 51.5 °C; in series [2] (cell cycle stage: mitosis), 52 °C. For the same sequence, the “solubility in G1/S (log2)” value in series [3] was found to be 0.138. The “solubility change mitosis (log2)” value in series [4] is -0.0323.
Consider “MARFALTVVRHGETRFNKEKIIQGQGVDEPLSETGFKQAAAAGIFLNNVKFTHAFSSDLMRTKQTMHGILERSKFCKDMTVKYDSRLRERKYGVVEGKALSELRAMAKAAREECPVFTPPGGETLDQVKMRGIDFFEFLCQLILKEADQKEQFSQGSPSNCLETSLAEIFPLGKNHSSKVNSDSGIPGLAASVLVVSHGAYMRSLFDYFLTDLKCSLPATLSRSELMSVTPNTGMSLFIINFEEGREVKPTVQCICMNLQDHLNGLTETR [TIGAR]”, for which the thermal stability score in series [1] (setting [5]) was -0.092; in series [1] (cell cycle stage: mitosis) it was 0.286. Besides, the melting temperature in series [2] (cell cycle stage: G1/S) came to 50.2 °C; in series [2] (cell cycle stage: mitosis), 50.3 °C. Also, in series [3], the “solubility in G1/S (log2)” value was 0.348. Further, the “solubility change mitosis (log2)” value in series [4] is -0.0797.

(Values after the supplement of paper PMC5998384.)
